Here are results for 1 molecule from publication PMC3416856.

The experiment concerns the target T1, KaiC of unphosphorylated initial condition (Synechococcus elongatus) (UniProt Q79PF4).
T1 sequence (chain, unphosphorylated at the start of the incubation): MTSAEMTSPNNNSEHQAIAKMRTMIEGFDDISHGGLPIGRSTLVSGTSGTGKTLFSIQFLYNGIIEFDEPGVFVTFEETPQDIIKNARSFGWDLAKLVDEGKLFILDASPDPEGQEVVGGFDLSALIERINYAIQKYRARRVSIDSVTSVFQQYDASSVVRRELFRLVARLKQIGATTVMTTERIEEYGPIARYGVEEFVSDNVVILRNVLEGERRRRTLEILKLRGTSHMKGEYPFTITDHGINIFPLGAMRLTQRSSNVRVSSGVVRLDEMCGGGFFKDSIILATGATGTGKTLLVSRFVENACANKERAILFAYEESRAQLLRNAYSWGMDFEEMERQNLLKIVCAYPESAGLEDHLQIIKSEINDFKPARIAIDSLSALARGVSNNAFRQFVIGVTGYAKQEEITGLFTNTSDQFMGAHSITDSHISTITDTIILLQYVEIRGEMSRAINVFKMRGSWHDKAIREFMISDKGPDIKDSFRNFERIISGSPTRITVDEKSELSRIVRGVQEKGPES

B1: wild type KaiA (natural protein)
chain: MLSQIAICIWVESTAILQDCQRALSADRYQLQVCESGEMLLEYAQTHRDQIDCLILVAANPSFRAVVQQLCFEGVVVPAIVVGDRDSEDPDEPAKEQLYHSAELHLGIHQLEQLPYQVDAALAEFLRLAPVETMADHIMLMGANHDPELSSQQRDLAQRLQERLGYLGVYYKRDPDRFLRNLPAYESQKLHQAMQTSYREIVLSYFSPNSNLNQSIDNFVNMAFFADVPVTKVVEIHMELMDEFAKKLRVEGRSEDILLDYRLTLIDVIAHLCEMYRRSIPRET
B1 showed a half-maximum concentration of KaiA for the phosphorylation of KaiC (3.5 µM) at 16 hr, 30°C (SDS-PAGE densitometry, sigmoid fit), against that for the highly phosphorylated initial condition of 5 fold.
